Measured values published in paper PMC314469, “Protein Interaction Networks by Proteome Peptide Scanning” (PLoS Biology, 2004).

T1: amphyphisin SH3 (AMPH_HUMAN), P49418
T1 chain: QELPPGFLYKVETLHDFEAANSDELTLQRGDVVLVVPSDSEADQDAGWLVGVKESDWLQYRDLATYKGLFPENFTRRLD


Biological target: T1, amphyphisin SH3 (AMPH_HUMAN), P49418
Assay: SPOT array

Row | Binder | normalised SPOT signal, Boehringer light units (BLU); mean over the file's lines of this peptide
1 | PPLPPPRPPRPPSP [Q9UPS6 160-174] | 5630
2 | PPPLPNKPPPEDYY [Q8TED9 137-151] | 42.3
3 | PPPPPTKPPETEAQ [Q9UJJ7 281-295] | 59.9
4 | PPVRPARPPGPLVT [Q8WYX3 74-88] | 7480
5 | PPLEPARPNRHPES [Q9H293 60-73] | 282
6 | PPVVPRRPPAHISS [Q9NTY8 3-17] | 6110
7 | PPKWIRRPTGVSFA [Q9NQW1 380-393] | 42.3
8 | PPTRPSRPWRDLPE [Q9UIG4 65-78] | 4300
9 | PPPPPPRPPKQQPP [Q9UL51 22-36] | 994
10 | PPPPPARPPARRAS [Q9H1V5 1094-1108] | 11500
11 | PPSGPLRPPATISP [Q9H4B5 83-97] | 105
12 | PPPPPLRPPPPPPP [Q9BR93 13-27] | 283
13 | ASATLGRPPRIPEP [Q9H0P6 178-191] | 139
14 | PPPLPQRPPPRLPP [Q9H9H4 263-277] | 2170
15 | PPPPIPRPAKLQAA [Q9HCG4 308-321] | 91
16 | PPLLPPRPPQGLEP [Q8TEH3 833-847] | 107
17 | PPPPPPRPPSRPKL [Q9BQI5 457-471] | 13700
18 | PPPIPKKPPKGKFP [Q9P1A6 952-966] | 64.7
19 | PPQVPSRPTRAPPR [Q9H0P3 825-838] | 6350

Next, values leading:

Row | normalised SPOT signal, Boehringer light units (BLU); mean over the file's lines of this peptide | Binder
20 | 8950 | PPTPPPRPQKTHSR [O43428 338-351]
21 | 51.7 | PPQSPRRPELPDLA [Q00973 42-55]
22 | 49 | ASGHIKRPMNAFMV [P35716 45-58]
23 | 71.5 | PPSAPRRPPVYYKF [O95696 129-142]
24 | 7.6 | AARTLRRPKALDSG [Q96RY6 273-286]
25 | 11000 | PPQVPSRPNRAPPG [Q05193 829-842]
26 | 17.3 | PPRKIKRPKRKMYR [Q96PV3 296-309]
27 | 3200 | ASFQPARPHRARHP [O95612 13-26]
28 | 1380 | PPQPPQRPPPPTGL [O15056 1050-1064]
29 | 5310 | PPPRPPRPPSPPPE [Q9UPS6 163-177]
30 | 170 | PPPTPRRPASVNGS [O43584 96-109]
31 | 29.1 | PPPPPERPPPIPPD [Q13191 554-568]
32 | 4490 | PPLLPRRPPPRVPA [O15056 1170-1184]
33 | 1290 | PPPPPPRPSKPTPS [Q14956 325-338]
34 | 316 | PPPKPNRPPNVDLT [O15117 355-369]
35 | 1930 | PPPLPRRPSTPRQG [O75412 1048-1061]
36 | 8780 | PPQVPSRPTRAPPS [Q9UQ16 664-677]
37 | 6220 | PPLLPGRPARDRGP [Q9Y6J0 1777-1790]
38 | 41.1 | PPKWIRRPVGASFS [O94979 386-399]
39 | 3320 | ASGGPRRPERHLPP [Q9Y6R0 7-20]
40 | 14900 | PPSRPSRPPSHPSA [Q99700 586-600]
41 | 8890 | PPQIPSRPVRIPPG [P50570 828-841]
42 | 189 | PPPVPLRPPEHFIN [Q07890 1215-1229]

biological target: endophilin SH3 (SH3G2_HUMAN), Q99962; assay: SPOT array

Row | Binder | normalised SPOT signal, Boehringer light units (BLU); mean over the file's lines of this peptide
43 | PPLPPPRPPRPPSP [Q9UPS6 160-174] | 8000
44 | PPPLPNKPPPEDYY [Q8TED9 137-151] | 92.7
45 | PPPPPTKPPETEAQ [Q9UJJ7 281-295] | 63.1
46 | PPVRPARPPGPLVT [Q8WYX3 74-88] | 6550
47 | PPLEPARPNRHPES [Q9H293 60-73] | 0
48 | PPVVPRRPPAHISS [Q9NTY8 3-17] | 17800
49 | PPKWIRRPTGVSFA [Q9NQW1 380-393] | 433
50 | PPTRPSRPWRDLPE [Q9UIG4 65-78] | 14300
51 | PPPPPPRPPKQQPP [Q9UL51 22-36] | 1160
52 | PPPPPARPPARRAS [Q9H1V5 1094-1108] | 13100
53 | PPSGPLRPPATISP [Q9H4B5 83-97] | 127
54 | PPPPPLRPPPPPPP [Q9BR93 13-27] | 1160
55 | ASATLGRPPRIPEP [Q9H0P6 178-191] | 65.5
56 | PPPLPQRPPPRLPP [Q9H9H4 263-277] | 2770
57 | PPPPIPRPAKLQAA [Q9HCG4 308-321] | 102
58 | PPLLPPRPPQGLEP [Q8TEH3 833-847] | 335
59 | PPPPPPRPPSRPKL [Q9BQI5 457-471] | 13400
60 | PPPIPKKPPKGKFP [Q9P1A6 952-966] | 3890
61 | PPQVPSRPTRAPPR [Q9H0P3 825-838] | 11000

Next, values leading:

Row | normalised SPOT signal, Boehringer light units (BLU); mean over the file's lines of this peptide | Binder
62 | 41100 | PPTPPPRPQKTHSR [O43428 338-351]
63 | 164 | PPQSPRRPELPDLA [Q00973 42-55]
64 | 146 | ASGHIKRPMNAFMV [P35716 45-58]
65 | 2730 | PPSAPRRPPVYYKF [O95696 129-142]
66 | 0 | AARTLRRPKALDSG [Q96RY6 273-286]
67 | 19600 | PPQVPSRPNRAPPG [Q05193 829-842]
68 | 30.1 | PPRKIKRPKRKMYR [Q96PV3 296-309]
69 | 649 | ASFQPARPHRARHP [O95612 13-26]
70 | 9830 | PPQPPQRPPPPTGL [O15056 1050-1064]
71 | 9410 | PPPRPPRPPSPPPE [Q9UPS6 163-177]
72 | 1020 | PPPTPRRPASVNGS [O43584 96-109]
73 | 74.8 | PPPPPERPPPIPPD [Q13191 554-568]
74 | 7190 | PPLLPRRPPPRVPA [O15056 1170-1184]
75 | 14300 | PPPPPPRPSKPTPS [Q14956 325-338]
76 | 2890 | PPPKPNRPPNVDLT [O15117 355-369]
77 | 9490 | PPPLPRRPSTPRQG [O75412 1048-1061]
78 | 12700 | PPQVPSRPTRAPPS [Q9UQ16 664-677]
79 | 27100 | PPLLPGRPARDRGP [Q9Y6J0 1777-1790]
80 | 642 | PPKWIRRPVGASFS [O94979 386-399]
81 | 12600 | ASGGPRRPERHLPP [Q9Y6R0 7-20]
82 | 20300 | PPSRPSRPPSHPSA [Q99700 586-600]
83 | 37500 | PPQIPSRPVRIPPG [P50570 828-841]
84 | 435 | PPPVPLRPPEHFIN [Q07890 1215-1229]
